According to paper PMC3690454, “14-3-3 Proteins Interact with a Hybrid Prenyl-Phosphorylation Motif to Inhibit G Proteins” (Cell, 2013):
Square brackets hold non-standard residues; d marks the D form. Ends that are not written are not given here. Peptide text beside a SMILES is read from it. * marks the point of attachment. Geranylgeranyl = CC(C)=CCC/C(C)=C/CC/C(C)=C/CC/C(C)=C/C*; Biotin = O=C1N[C@H]2[C@H](CS[C@H]2CCCCC(=O)*)N1; pT = C[C@@H](OP(=O)(O)O)[C@H](N)C(=O)O; pS = N[C@@H](COP(=O)(O)O)C(=O)O; X1 = CC(C)=CCC/C(C)=C/C*; Ahx = NCCCCCC(=O)O; Prenyl = CC(C)=CC*

Tests used:
14-3-3ζ = molecular target: T1, 14-3-3ζ (Homo sapiens, UniProt P63104); test: Biolayer interferometry (Octet RED96), immobilised biotinylated peptides, 14-3-3ζ in solution; assay type: binding; details: for Kd: kinetic fit, peptide immobilised at 1 μg/ml, 25 mM Tris, 150 mM NaCl, 0.1% Tween-20, association 300 s, dissociation 300 s, NB = no binding; for Kd / koff / kon: typical experiment (n ≥ 3)
T1 construct: hexa-His; made in house; host or cells: E. coli BL21(DE3) Star
T1 sequence (P63104 1-245): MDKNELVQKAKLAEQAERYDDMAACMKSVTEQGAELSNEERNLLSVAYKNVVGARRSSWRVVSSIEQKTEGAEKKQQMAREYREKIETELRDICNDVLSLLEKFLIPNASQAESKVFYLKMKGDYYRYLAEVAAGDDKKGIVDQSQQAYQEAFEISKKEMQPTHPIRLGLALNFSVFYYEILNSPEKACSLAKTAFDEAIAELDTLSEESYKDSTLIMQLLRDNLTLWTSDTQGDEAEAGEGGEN
Experimental: (§1) Biolayer interferometry was carried out using an Octet RED96 instrument (ForteBio). Biotinylated peptides were immobilized on streptavadin-coated biosensors (ForteBio) at a concentration of 1 μg/ml in BI buffer (25 mM Tris, 150 mM NaCl, 0.1% Tween-20), for 300 s. The immobilization typically reached a response level of 2 nm. Association and dissociation curves were obtained through addition of a dilution series of 14-3-3ζ ([…]) for 300 s followed by dissociation in BI buffer for 300 s using the Octet acquisition software. The binding data were fitted using the Octet analysis software.

14-3-3δ = molecular target: T2, 14-3-3δ (Homo sapiens, UniProt P63104); test: Biolayer interferometry (Octet Red96) of candidate protein C-terminal peptides, Table S5; assay type: binding; details: for affinity for 14-3-3 (in words): compared with farnesylated or geranylgeranylated Rnd3 peptides; for koff: typical experiment (n ≥ 3)
T2 construct: hexa-His; made in house; host or cells: E. coli BL21(DE3) Star
T2 sequence (P63104 1-245): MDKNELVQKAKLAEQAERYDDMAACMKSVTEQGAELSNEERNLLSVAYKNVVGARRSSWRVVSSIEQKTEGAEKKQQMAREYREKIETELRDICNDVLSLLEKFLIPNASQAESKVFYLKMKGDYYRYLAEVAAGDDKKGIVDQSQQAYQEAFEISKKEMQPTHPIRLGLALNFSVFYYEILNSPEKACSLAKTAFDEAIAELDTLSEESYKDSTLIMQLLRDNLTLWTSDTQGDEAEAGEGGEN
Experimental: as §1
Table S5. Interactions of C-Terminal Peptides from Candidate Proteins with 14-3-3, […]
The affinities of the indicated phosphorylated and geranylgeranylated peptides for 14-3-3δ were determined by biolayer interferometry using an Octet Red96 instrument. Data of a typical experiment (n ≥ 3) along with statistics of the fit (χ2, R2) are shown. Peptide sequences from the C-terminus of the indicated proteins (last 10 amino acids of the mature protein sequence, terminating with Cys of CAAX box) are shown in single letter amino acid code, with pS/pT denoting phosphorylated serine/threonine. The modifications added to the C-terminal Cys are indicated. GG, geranylgeranylated; KD, dissociation constant; kon, association rate constant; koff, dissocation rate constant.

hexa-His-tagged 14-3-3ζ = molecular target: T3, hexa-His-tagged 14-3-3ζ (UniProt P63104 1-245); test: BLI; Octet RED96; biotinylated peptides immobilised on streptavidin-coated biosensors (1 μg/ml, 300 s); dilution series of 14-3-3ζ for 300 s, dissociation 300 s; BI buffer 25 mM Tris, 150 mM NaCl, 0.1% Tween-20; data of a typical experiment (n ≥ 3); details: both partners purified
T3 construct: 14-3-3 protein zeta; expressed and purified essentially as in Kostelecky et al., 2009; eluted as a dimer of ~60 kDa; the ITC methods call it 'the 14-3-3ζ domain'; source: E. coli BL21(DE3) Star, purified (HisTrap, size-exclusion chromatography)
T3 sequence: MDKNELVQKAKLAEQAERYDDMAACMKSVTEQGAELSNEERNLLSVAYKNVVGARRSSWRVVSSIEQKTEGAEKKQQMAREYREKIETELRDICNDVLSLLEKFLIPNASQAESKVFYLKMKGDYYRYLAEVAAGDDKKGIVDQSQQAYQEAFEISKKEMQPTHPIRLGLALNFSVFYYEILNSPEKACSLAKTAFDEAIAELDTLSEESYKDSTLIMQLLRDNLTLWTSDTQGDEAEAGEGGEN

CC(C)=CCC/C(C)=C/CSC[C@H](NC(=O)[C@H](COP(=O)(O)O)NC(=O)[C@H](CCCCN)NC(=O)[C@H](C)NC(=O)[C@H](CCCCN)NC(=O)[C@H](CC(=O)O)NC(=O)[C@H](CCCCN)NC(=O)[C@H](CCCNC(=N)N)NC(=O)[C@H](CC(C)C)NC(=O)[C@H](CC(=O)O)NC(=O)CCCCCNC(=O)CCCC[C@@H]1SC[C@@H]2NC(=O)N[C@@H]21)C(=O)O [+P+G] ({Biotin-Ahx}-DLRKDKAK[pS]C(X1)-OH)
Kd (14-3-3ζ): 56.5 nM | koff (14-3-3ζ): 0.032 s⁻¹ | kon (14-3-3ζ): 570000 M⁻¹ s⁻¹

CC[C@H](C)[C@H](NC(=O)[C@@H]1CCCN1C(=O)[C@@H](NC(=O)[C@@H]1CCCN1C(=O)CCCCCNC(=O)CCCC[C@@H]1SC[C@@H]2NC(=O)N[C@@H]21)[C@@H](C)O)C(=O)N[C@@H](CCCCN)C(=O)N[C@@H](CCCNC(=N)N)C(=O)NCC(=O)N[C@@H](CCCNC(=N)N)C(=O)N[C@@H](COP(=O)(O)O)C(=O)N[C@@H](CSC/C=C(\C)CC/C=C(\C)CC/C=C(\C)CCC=C(C)C)C(=O)O [RhoG] ({Biotin-Ahx}-PTPIKRGR[pS]C(Geranylgeranyl)-OH)
affinity for 14-3-3 (in words) (14-3-3δ): lower affinity | koff (14-3-3δ): 0.035 s⁻¹

CC(C)=CCC/C(C)=C/CC/C(C)=C/CC/C(C)=C/CSC[C@H](NC(=O)[C@H](COP(=O)(O)O)NC(=O)[C@H](CCCCN)NC(=O)[C@H](CO)NC(=O)[C@H](CCCNC(=N)N)NC(=O)[C@H](CCCNC(=N)N)NC(=O)[C@H](CCC(=O)O)NC(=O)[C@@H](NC(=O)[C@H](CC(N)=O)NC(=O)[C@@H](NC(=O)CCCCCNC(=O)CCCC[C@@H]1SC[C@@H]2NC(=O)N[C@@H]21)[C@@H](C)O)[C@@H](C)O)C(=O)O [RPRG] ({Biotin-Ahx}-TNTERRSK[pS]C(Geranylgeranyl)-OH)
affinity for 14-3-3 (in words) (14-3-3δ): intermediate affinity | koff (14-3-3δ): 0.022 s⁻¹

CC(C)=CCSC[C@H](NC(=O)[C@H](COP(=O)(O)O)NC(=O)[C@H](CCCCN)NC(=O)[C@H](C)NC(=O)[C@H](CCCCN)NC(=O)[C@H](CC(=O)O)NC(=O)[C@H](CCCCN)NC(=O)[C@H](CCCNC(=N)N)NC(=O)[C@H](CC(C)C)NC(=O)[C@H](CC(=O)O)NC(=O)CCCCCNC(=O)CCCC[C@@H]1SC[C@@H]2NC(=O)N[C@@H]21)C(=O)O [+P+Ipr] ({Biotin-Ahx}-DLRKDKAK[pS]C(Prenyl)-OH)
fold lower affinity for 14-3-3 compared to Rnd3 peptides with two, three and four isoprenyl groups (14-3-3ζ): approximately 10 fold | Kd (14-3-3ζ): 556 nM | koff (14-3-3ζ): 0.13 s⁻¹ | kon (14-3-3ζ): 240000 M⁻¹ s⁻¹

B1: Rap1A C-terminal peptide, phosphorylated and geranylgeranylated (N-Bio-Eahx-EKKKPKKKpSC(S-geranylgeranyl)-C) (peptide)
peptide: {Biotin-Ahx}-EKKKPKKK[pS]C(Geranylgeranyl)
notes: also called Rap1A+P+GG; source: synthetic peptide
Kd (hexa-His-tagged 14-3-3ζ): 23.6 nM | koff (hexa-His-tagged 14-3-3ζ): 0.034 s⁻¹ | kon (hexa-His-tagged 14-3-3ζ): 1.4e+06 M⁻¹ s⁻¹

{Biotin-Ahx}-PGKARKKS[pS]C(Geranylgeranyl) (source: synthetic peptide)
Kd (hexa-His-tagged 14-3-3ζ): 170 nM | kon (hexa-His-tagged 14-3-3ζ): 320000 M⁻¹ s⁻¹

{Biotin-Ahx}-PTPIKRGR[pS]C(Geranylgeranyl) (source: synthetic peptide)
Kd (hexa-His-tagged 14-3-3ζ): 868 nM | kon (hexa-His-tagged 14-3-3ζ): 41000 M⁻¹ s⁻¹

{Biotin-Ahx}-GGDDKKSK[pT]C(Geranylgeranyl) (source: synthetic peptide)
Kd (hexa-His-tagged 14-3-3ζ): 44.5 nM | kon (hexa-His-tagged 14-3-3ζ): 410000 M⁻¹ s⁻¹

B2: RPGR C-terminal peptide, phosphorylated and geranylgeranylated (N-Bio-Eahx-TNTERRSKpSC(S-geranylgeranyl)-C) (peptide)
peptide: {Biotin-Ahx}-TNTERRSK[pS]C(Geranylgeranyl)
notes: also called RPRG; source: synthetic peptide
Kd (hexa-His-tagged 14-3-3ζ): 95 nM | koff (hexa-His-tagged 14-3-3ζ): 0.022 s⁻¹ | kon (hexa-His-tagged 14-3-3ζ): 240000 M⁻¹ s⁻¹
